According to paper PMC5906663:

How the values were obtained:
[1] = target: NCAM R156E mutant expressed in HEK293T cells (UniProt P13591); assay: co-IP; lysates (1 mg, RIPA buffer) of HEK293T cells transfected with NCAM140, NCAM mutants or EphA3, incubated with recombinant neurocan; precipitated with antibodies against NCAM (H-300) or EphA3 (C-19) and Protein A/G agarose; immunoblot for neurocan, densitometry
[2] = target: NCAM K162D mutant expressed in HEK293T cells (UniProt P13591); assay: as above
[3] = target: human NCAM Ig1-3 Fc fusion protein (human); assay: pull-down; 1 ug of neurocan (human or mouse) incubated with 1 ug of Fc protein in TBS for 1 hr at 37 C; Fc proteins pulled down with Protein A/G Sepharose beads; immunoblot, densitometry
[4] = target: human NCAM Ig1 Fc fusion protein (human); assay: as above
[5] = target: human NCAM Ig1-2 Fc fusion protein (human); assay: as above
[6] = target: human NCAM Ig2 Fc fusion protein (human); assay: as above
[7] = target: human NCAM Ig1-5/FN1-2 Fc fusion protein (full-length NCAM-EC) (human) (UniProt P13591); assay: as above

| Substance | neurocan co-immunoprecipitated, percent of WT NCAM [1] | neurocan co-immunoprecipitated, percent of WT NCAM [2] | neurocan bound, percent of the amount bound to NCAM-EC-Fc [3] [%] | neurocan bound, percent of the amount bound to NCAM-EC-Fc [4] [%] | neurocan bound, percent of the amount bound to NCAM-EC-Fc [5] [%] | neurocan bound, percent of the amount bound to NCAM-EC-Fc [6] [%] | neurocan bound to NCAM-EC-Fc, percent of the human neurocan level [7] [%] |
| --- | --- | --- | --- | --- | --- | --- | --- |
| recombinant human neurocan (full-length protein) (from UniProt O14594 23-1321) (natural protein) | 32 % of WT | 41 % of WT | 50 | 23 | 33 | 129 | – |
| recombinant mouse neurocan Glu23-637 (a truncation lacking the sushi domain) (from UniProt P55066 23-637) (domain or fragment) | – | – | – | – | – | – | 93 |
